Assay results taken from PMC4365997 (Journal of cell science, 2008).

Target: T1, recombinant Rab11a (UniProt P62491 1-216)
T1 sequence (looked up): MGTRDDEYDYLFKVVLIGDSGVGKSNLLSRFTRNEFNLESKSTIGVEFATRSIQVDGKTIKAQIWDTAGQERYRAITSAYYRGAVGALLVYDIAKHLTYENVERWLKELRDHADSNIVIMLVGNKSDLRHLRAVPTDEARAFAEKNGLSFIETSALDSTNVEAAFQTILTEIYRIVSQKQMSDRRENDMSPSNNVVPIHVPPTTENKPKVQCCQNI
Experiment: pull-down

binding result: binds
B1: Rip11/FIP5(490-652) (domain or fragment, UniProt Q9BXF6 490-652, looked up)
chain: ILGASPHHSSSGEEKAKSSWFGLREAKDPTQKPSPHPVKPLSAAPVEGSPDRKQSRSSLSIALSSGLEKLKTVTSGSIQPVTQAPQAGQMVDTKRLKDSAVLDQSAKYYHLTHDELISLLLQRERELSQRDEHVQELESYIDRLLVRIMETSPTLLQIPPGPP
